According to US20050245445A1 (BURNHAM INSTITUTE FOR MEDICAL RESEARCH, published 2005):
Where no end group is shown, it is not given here.

Legend:
[1] = target: PDGFRβ overexpressed on transfected 293T cells; assay: phage binding to transfected 293T cells, 2 hours at 4° C., bound phage counted by plaque assay
[2] = target: T1, PDGFRβ in RIP1-Tag2 mouse tumor tissue (mouse, UniProt P05622 32-1098); assay: co-localization of i.v. injected peptide with anti-PDGFRβ immunostaining in RIP1-Tag2 tumor sections
T1 construct: whole, on cells; Endogenous receptor in tissue, seen only by immunostaining; also called PDGFRb (CD140b)
Description: For immunohistochemistry, frozen slides were pre-incubated with blocking buffer (1×PNB from NEN Biosciences) for one hour, washed several times in 1×PBS and incubated with the primary antibody of interest overnight at 4° C. The cell-specific antibodies used were rat monoclonal anti-mouse CD31 (1:200; BD Pharmingen), rat monoclonal anti-mouse MECA-32 (1:200; BD Pharmingen), rabbit polyclonal anti-mouse NG2 (1:200; Chemicon), and rat monoclonal anti-mouse PDGFRb (CD140b) (1:200; eBioscience). The corresponding secondary antibodies; Cy-3 donkey anti-rabbit IgG and Rhodamine Red donkey anti-rat IgG (Jackson ImmunoResearch), were used at a 1:200 dilution and incubated for one hour at room temperature. The following species-matched immunoglobulins were used as negative controls; rabbit IgG (Vector Laboratories) and rat IgG (Jackson ImmunoResearch) at a 1:200 dilution. The slides were washed several times in 1×PBS and mounted in Vectashield Mounting Medium with DAPI (Vector Laboratories). Hematoxylin and eosin (H&E) staining was performed for histological grading of adjacent sections by standard methods, and lesions were graded as previously described (Lopez and Hanahan, 2002).
In contrast, no binding above background was detected toward cells transfected with vascular endothelial growth factor receptor 2 (VEGFR2) (FIG. 5A).

T1 sequence (P05622 32-1098): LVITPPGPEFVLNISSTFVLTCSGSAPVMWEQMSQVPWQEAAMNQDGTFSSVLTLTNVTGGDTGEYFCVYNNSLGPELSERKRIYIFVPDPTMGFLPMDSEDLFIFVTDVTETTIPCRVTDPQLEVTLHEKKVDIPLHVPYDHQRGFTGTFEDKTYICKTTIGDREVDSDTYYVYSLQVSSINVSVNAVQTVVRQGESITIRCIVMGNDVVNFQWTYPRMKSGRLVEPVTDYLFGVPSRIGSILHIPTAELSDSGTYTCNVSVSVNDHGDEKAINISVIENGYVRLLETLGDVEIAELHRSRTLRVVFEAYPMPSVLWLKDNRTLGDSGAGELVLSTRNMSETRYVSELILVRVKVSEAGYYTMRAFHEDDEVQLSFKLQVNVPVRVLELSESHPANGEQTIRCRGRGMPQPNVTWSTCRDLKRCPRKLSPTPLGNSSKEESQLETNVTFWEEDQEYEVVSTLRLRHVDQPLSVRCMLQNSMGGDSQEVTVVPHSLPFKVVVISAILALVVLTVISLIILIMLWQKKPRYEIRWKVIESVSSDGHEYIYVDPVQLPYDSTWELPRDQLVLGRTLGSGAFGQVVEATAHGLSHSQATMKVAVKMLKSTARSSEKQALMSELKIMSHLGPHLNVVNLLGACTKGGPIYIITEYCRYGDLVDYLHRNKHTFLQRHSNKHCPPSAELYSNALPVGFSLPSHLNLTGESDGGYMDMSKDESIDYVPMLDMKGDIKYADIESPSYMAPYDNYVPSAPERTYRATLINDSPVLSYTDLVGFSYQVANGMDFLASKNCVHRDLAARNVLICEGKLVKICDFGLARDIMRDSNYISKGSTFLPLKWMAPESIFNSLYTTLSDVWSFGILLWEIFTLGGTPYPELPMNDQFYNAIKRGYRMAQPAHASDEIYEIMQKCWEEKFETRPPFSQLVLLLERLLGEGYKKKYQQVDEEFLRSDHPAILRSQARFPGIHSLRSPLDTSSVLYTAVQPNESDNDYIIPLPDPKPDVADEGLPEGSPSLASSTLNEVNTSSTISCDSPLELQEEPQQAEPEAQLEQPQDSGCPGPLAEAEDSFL

**Q.** Which fold binding to PDGFRβ-transfected cells over non-transfected cells [1] does the source give for CRGRRST [RGR phage (T7 phage displaying the RGR peptide CRGRRST)] here?
**A.** Its fold binding to PDGFRβ-transfected cells over non-transfected cells is 20 fold.

B1: fluorescein-conjugated RGR peptide (CRGRRST) (peptide)
peptide: CRGRRST
modifications: also: fluorescein-conjugated (site of attachment not given here)
notes: Synthetic linear peptide made by Fmoc chemistry and injected intravenously into RIP1-Tag2 mice; also called RGR-FITC; fluorescein-conjugated CRGRRST peptide
**Q.** Does B1 bind [2]?
**A.** Result: binds
